Literature values as cited in article PMC11446229.
Read-outs that look alike come from different tables or passages of the source.

How the values were obtained:
IscS (Escherichia coli) [1] = target: IscS (Escherichia coli) (UniProt P0A6B7)
SufS (Escherichia coli) = SufS (Escherichia coli) (UniProt P77444); experiment: surface plasmon resonance
SufS (Bacillus subtilis) = SufS (Bacillus subtilis) (UniProt O32164)
IscS (Escherichia coli) [2] = target: IscS (Escherichia coli) (UniProt P0A6B7); remark: listed apart in the source

Sequence of IscS (Escherichia coli) (P0A6B7 whole entry): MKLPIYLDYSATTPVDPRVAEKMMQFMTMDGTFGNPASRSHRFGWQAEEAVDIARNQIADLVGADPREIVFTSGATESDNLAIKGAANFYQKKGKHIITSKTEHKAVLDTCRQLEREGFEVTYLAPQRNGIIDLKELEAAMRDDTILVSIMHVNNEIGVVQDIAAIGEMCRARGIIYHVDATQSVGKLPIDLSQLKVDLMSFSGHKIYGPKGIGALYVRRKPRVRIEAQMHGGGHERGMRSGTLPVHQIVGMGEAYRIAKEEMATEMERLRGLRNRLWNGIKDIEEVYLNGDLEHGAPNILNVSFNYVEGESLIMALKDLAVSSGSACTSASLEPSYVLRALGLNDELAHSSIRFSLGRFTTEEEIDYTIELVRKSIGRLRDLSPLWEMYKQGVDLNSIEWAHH
Sequence of SufE (P76194 whole entry): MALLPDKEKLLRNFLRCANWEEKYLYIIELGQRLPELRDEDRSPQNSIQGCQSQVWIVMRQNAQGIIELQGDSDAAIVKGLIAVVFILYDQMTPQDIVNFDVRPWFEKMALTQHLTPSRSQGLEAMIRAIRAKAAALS
Sequence of CyaY (P27838 whole entry): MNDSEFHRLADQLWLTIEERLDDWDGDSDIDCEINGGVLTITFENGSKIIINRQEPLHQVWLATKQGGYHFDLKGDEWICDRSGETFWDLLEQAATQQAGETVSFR
Sequence of SufS (Bacillus subtilis) (O32164 whole entry): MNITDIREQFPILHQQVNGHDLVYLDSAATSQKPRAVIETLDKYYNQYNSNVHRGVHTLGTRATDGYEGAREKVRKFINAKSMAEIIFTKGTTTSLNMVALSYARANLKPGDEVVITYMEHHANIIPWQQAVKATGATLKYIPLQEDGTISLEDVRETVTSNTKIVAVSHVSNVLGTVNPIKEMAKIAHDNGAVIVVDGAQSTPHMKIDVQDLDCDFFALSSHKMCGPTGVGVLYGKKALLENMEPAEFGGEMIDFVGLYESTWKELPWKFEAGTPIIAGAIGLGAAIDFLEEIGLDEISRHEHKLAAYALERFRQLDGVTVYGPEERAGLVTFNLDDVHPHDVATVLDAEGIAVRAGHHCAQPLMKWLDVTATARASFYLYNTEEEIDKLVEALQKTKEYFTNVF
Sequence of TusA (P0A890 whole entry): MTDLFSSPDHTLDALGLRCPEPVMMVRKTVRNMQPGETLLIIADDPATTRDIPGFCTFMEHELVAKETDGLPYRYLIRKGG
Sequence of SufU (O32163 whole entry): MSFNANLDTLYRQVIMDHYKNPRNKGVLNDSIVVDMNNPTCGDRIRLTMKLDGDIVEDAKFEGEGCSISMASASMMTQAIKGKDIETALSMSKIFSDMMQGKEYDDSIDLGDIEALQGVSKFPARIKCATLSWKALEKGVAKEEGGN
Sequence of SufS (Escherichia coli) (P77444 whole entry): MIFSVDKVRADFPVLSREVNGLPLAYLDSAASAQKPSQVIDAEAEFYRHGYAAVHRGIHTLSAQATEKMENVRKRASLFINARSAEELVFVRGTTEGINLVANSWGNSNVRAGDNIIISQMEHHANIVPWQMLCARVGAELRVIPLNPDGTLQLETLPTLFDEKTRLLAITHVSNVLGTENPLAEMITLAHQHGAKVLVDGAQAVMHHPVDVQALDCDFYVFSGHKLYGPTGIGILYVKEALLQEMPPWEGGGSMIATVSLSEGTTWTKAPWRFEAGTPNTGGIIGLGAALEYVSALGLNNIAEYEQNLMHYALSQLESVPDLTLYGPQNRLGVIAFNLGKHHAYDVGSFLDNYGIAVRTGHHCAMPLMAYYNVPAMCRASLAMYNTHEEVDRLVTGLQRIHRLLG

In the case of CyaY (from UniProt P27838), the Kd (IscS (Escherichia coli) [1]) is given as 23 µM.

In the case of SufE (from UniProt P76194), the Kd (SufS (Escherichia coli)) is given as 0.36 µM.

For SufU (from UniProt O32163), the Kd (SufS (Bacillus subtilis)) is listed as 3 µM.

For TusA (from UniProt P0A890), the Kd (IscS (Escherichia coli) [2]) is given as 8 µM.
